Results published in patent US20250320312A1 (OXITOPE PHARMA B V, published 2025).
Positions count from the first letter of the chain named.

T1: Peptide 4: Biotin-AGGGGSGGGGSGGGGSAAA-Tyr-acid (N-terminal biotin; C-terminal acid)
T1 construct: Control peptide without PC
T1 peptide: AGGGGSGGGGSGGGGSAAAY

T2: Peptide 8: Biotin-AEAAAKEAAAKEAAAKEAAAKAAA-Tyr-acid (N-terminal biotin; C-terminal acid)
T2 construct: Control peptide without PC
T2 peptide: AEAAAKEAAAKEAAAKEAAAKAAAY

B1: PcOxP_DB02_H09 (scFv, V domains shown)
VH: EVQLLESGGGLVQPGGSLRLSCAASGFTFSSYYMEWVRQAPGKGLEWVAASRNKANDYTYEYADSVKGRFTISRDNSKNTLYLQMNSLRAEDTAVYYCARDYYESSYWYFDVWGQGTLVTVSS
VL: DIVMTQSPDSLAVSLGERATINCTASESLYSSKHKVHYLAWYQQKPGQPPKLLIYGASNRYIGVPDRFSGSGSGTDFTLTISSLQAEDVAVYYCAQFYSYPLTFGGGTKVEIK
notes: scFv in periplasmic extract
B2: PcOxP_DB03_B11 (scFv, V domains shown)
VH: B1 VH with S31D, Y32F, M34V, D57T, Y60T, E104G
VL: B1 VL with S58Q, A95G
notes: scFv in periplasmic extract
B3: PcOxP_DB03_E12 (scFv, V domains shown)
VH: B1 VH with F27E, S31D, Y32F, A55W, Y60T, E104G
VL: B1 VL with H37N
notes: scFv in periplasmic extract
B4: PcOxP_DB03_A04 (scFv, V domains shown)
VH: B1 VH with F27D, S31D, Y32F, T59S, Y60T, E104G
VL: B1 VL with T24E
notes: scFv in periplasmic extract
B5: PcOxP_DB03_B09 (scFv, V domains shown)
VH: B1 VH with Y60T, E104G
VL: B1 VL with S58A
notes: scFv in periplasmic extract
B6: PcOxP_DB03_B03 (scFv, V domains shown)
VH: B1 VH with S31D, Y32G, Y60T, E104G
VL: B1 VL with S99V
notes: scFv in periplasmic extract
B7: PcOxP_DB03_B08 (scFv, V domains shown)
VH: B1 VH with S31D, Y60T, E104G
VL: B1 VL with Q96N
notes: scFv in periplasmic extract
B8: PcOxP_DB03_A10 (scFv, V domains shown)
VH: B1 VH with F27W, S31D, Y32F, Y60T, E104G
VL: B1 VL with N59Q, S99L
notes: scFv in periplasmic extract
B9: PcOxP_DB03_E11 (scFv, V domains shown)
VH: B1 VH with S31D, Y32G, Y60T, E104G
VL: B1 VL with T24K, A25S, H34N, S99H
notes: scFv in periplasmic extract
B10: PcOxP_DB03_A12 (scFv, V domains shown)
VH: B1 VH with S31D, Y32G, Y60T, E61A, E104G
VL: B1 VL with A95G
notes: scFv in periplasmic extract
B11: PcOxP_DB03_D10 (scFv, V domains shown)
VH: B1 VH with F29T, S31D, Y32F, D57G, Y60T, E104G
VL: B1 VL with N59G
notes: scFv in periplasmic extract
B12: PcOxP_DB03_A05 (scFv, V domains shown)
VH: B1 VH with S31E, Y32F, Y60T, E104G
VL: B1 VL with Y61A, S99F
notes: scFv in periplasmic extract
B13: PcOxP_DB03_C10 (scFv, V domains shown)
VH: B1 VH with D57E, Y60T, E104G
VL: B1 VL with S58G
notes: scFv in periplasmic extract
B14: PcOxP_DB03_E03 (scFv, V domains shown)
VH: B1 VH with F29E, S31D, Y32F, Y60T, E104G
VL: B1 VL with T24K, A25S, E27Q, Y30L, S31Y, H34N, K35N, H37N, A57E, S99E
notes: scFv in periplasmic extract
B15: PcOxP_DB03_D02 (scFv, V domains shown)
VH: B1 VH with S31D, Y60T, E104G
VL: B1 VL with S58T, Q96E
notes: scFv in periplasmic extract
B16: PcOxP_DB03_D12 (scFv, V domains shown)
VH: B1 VH with F29N, S31D, Y32F, Y60T, Y62L, E104G
VL: B1 VL
notes: scFv in periplasmic extract
B17: PcOxP_DB03_B10 (scFv, V domains shown)
VH: B1 VH with S31D, T59N, Y60T, E104G
VL: B1 VL
notes: scFv in periplasmic extract
B18: PcOxP_DB03_C04 (scFv, V domains shown)
VH: B1 VH with S31D, Y32F, Y60T, E104G, F110N
VL: B1 VL with S99T
notes: scFv in periplasmic extract
B19: PcOxP_DB03_B07 (scFv, V domains shown)
VH: B1 VH with T28G, S31D, Y32F, Y60T, E104S
VL: B1 VL
notes: scFv in periplasmic extract
B20: PcOxP_DB03_A06 (scFv, V domains shown)
VH: B1 VH with N53S, Y60T, E104G, S106Q
VL: B1 VL with S32N
notes: scFv in periplasmic extract
B21: PcOxP_DB03_F02 (scFv, V domains shown)
VH: B1 VH with Y60T, E104D
VL: B1 VL with A25S, Y30L, I62T
notes: scFv in periplasmic extract
B22: PcOxP_DB03_F03 (scFv, V domains shown)
VH: B1 VH with S31D, Y32Q, A55N, Y60T, E104G, S105A
VL: B1 VL with E27Q, L29V, V36K, S58N, A95G
notes: scFv in periplasmic extract
B23: PcOxP_DB03_D03 (scFv, V domains shown)
VH: B1 VH with S31D, Y60T, E104F
VL: B1 VL
notes: scFv in periplasmic extract
B24: PcOxP_DB03_C01 (scFv, V domains shown)
VH: B1 VH with S31D, Y32F, Y60T, Y62V, E104G, Y107N
VL: B1 VL with H34I, S58H
notes: scFv in periplasmic extract
B25: PcOxP_DB03_B06 (scFv, V domains shown)
VH: B1 VH with F27I, S31D, Y32F, A55Y, Y60T, E104G
VL: B1 VL with I62T
notes: scFv in periplasmic extract
B26: PcOxP_DB03_B12 (scFv, V domains shown)
VH: B1 VH with T28Q, S31D, Y32F, N53W, Y60T, E104G
VL: B1 VL
notes: scFv in periplasmic extract
B27: PcOxP_DB03_C08 (scFv, V domains shown)
VH: B1 VH with F27S, S31D, Y32F, Y58F, Y60T, E104G
VL: B1 VL with I62S, S99H
notes: scFv in periplasmic extract
B28: PcOxP_DB03_B01 (scFv, V domains shown)
VH: B1 VH with K54T, Y60T, E104G
VL: B1 VL with Y61E
notes: scFv in periplasmic extract
B29: PcOxP_DB03_A07 (scFv, V domains shown)
VH: B1 VH with T28H, S31D, Y32F, Y60T, E104G
VL: B1 VL with S28N, I62S
notes: scFv in periplasmic extract
B30: PcOxP_DB03_E04 (scFv, V domains shown)
VH: B1 VH with Y60T, E104G
VL: B1 VL with I62L
notes: scFv in periplasmic extract

target: BSA (UniProt P02769); assay: scFv ELISA
Sequence (P02769 25-607 limits assumed): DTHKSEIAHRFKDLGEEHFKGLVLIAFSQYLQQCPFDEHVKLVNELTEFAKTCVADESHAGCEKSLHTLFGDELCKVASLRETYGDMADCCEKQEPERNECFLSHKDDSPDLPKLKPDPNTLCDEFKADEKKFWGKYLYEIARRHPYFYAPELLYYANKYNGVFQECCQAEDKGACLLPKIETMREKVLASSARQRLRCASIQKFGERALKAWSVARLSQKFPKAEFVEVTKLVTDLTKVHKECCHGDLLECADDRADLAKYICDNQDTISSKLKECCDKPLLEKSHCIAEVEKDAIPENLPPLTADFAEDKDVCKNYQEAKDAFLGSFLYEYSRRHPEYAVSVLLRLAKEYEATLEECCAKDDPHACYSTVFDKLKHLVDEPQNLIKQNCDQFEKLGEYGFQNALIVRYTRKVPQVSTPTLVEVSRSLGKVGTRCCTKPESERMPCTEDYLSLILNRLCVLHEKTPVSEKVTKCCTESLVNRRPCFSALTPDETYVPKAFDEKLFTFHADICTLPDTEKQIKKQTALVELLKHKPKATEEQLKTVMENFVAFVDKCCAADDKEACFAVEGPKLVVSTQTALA

| Binder | OD450 |
| --- | --- |
| B1 | 0.07 OD450 |
| B2 | 0.07 OD450 |
| B3 | 0.06 OD450 |
| B4 | 0.06 OD450 |
| B5 | 0.08 OD450 |
| B6 | 0.07 OD450 |
| B7 | 0.07 OD450 |
| B8 | 0.06 OD450 |
| B9 | 0.07 OD450 |
| B10 | 0.07 OD450 |
| B11 | 0.06 OD450 |
| B12 | 0.06 OD450 |
| B13 | 0.07 OD450 |
| B14 | 0.05 OD450 |
| B15 | 0.09 OD450 |
| B16 | 0.06 OD450 |
| B17 | 0.08 OD450 |
| B18 | 0.07 OD450 |
| B19 | 0.12 OD450 |
| B20 | 0.08 OD450 |
| B21 | 0.07 OD450 |
| B22 | 0.08 OD450 |
| B23 | 0.1 OD450 |
| B24 | 0.08 OD450 |
| B25 | 0.06 OD450 |
| B26 | 0.06 OD450 |
| B27 | 0.06 OD450 |
| B28 | 0.06 OD450 |
| B29 | 0.06 OD450 |
| B30 | 0.08 OD450 |

target: Peptide 1: Biotin-…-[Tyr(PC)]-acid; assay: scFv ELISA

| Binder | OD450 |
| --- | --- |
| B1 | 0.25 OD450 |
| B2 | 0.5 OD450 |
| B3 | 0.57 OD450 |
| B4 | 0.19 OD450 |
| B5 | 1.09 OD450 |
| B6 | 1.12 OD450 |
| B7 | 2.63 OD450 |
| B8 | 0.6 OD450 |
| B9 | 1.4 OD450 |
| B10 | 2.28 OD450 |
| B11 | 1.19 OD450 |
| B12 | 0.93 OD450 |
| B13 | 1.1 OD450 |
| B14 | 0.27 OD450 |
| B15 | 0.67 OD450 |
| B16 | 0.2 OD450 |
| B17 | 0.41 OD450 |
| B18 | 2.11 OD450 |
| B19 | 0.66 OD450 |
| B20 | 0.99 OD450 |
| B21 | 1.56 OD450 |
| B22 | 1.13 OD450 |
| B23 | 0.73 OD450 |
| B24 | 0.84 OD450 |
| B25 | 0.68 OD450 |
| B26 | 1.21 OD450 |
| B27 | 0.98 OD450 |
| B28 | 0.21 OD450 |
| B29 | 0.94 OD450 |
| B30 | 0.96 OD450 |

target: Peptide 5: Biotin-…-[Tyr(PC)]-acid; assay: scFv ELISA

| Binder | OD450 |
| --- | --- |
| B1 | 0.58 OD450 |
| B2 | 0.72 OD450 |
| B3 | 0.88 OD450 |
| B4 | 0.47 OD450 |
| B5 | 0.89 OD450 |
| B6 | 1.1 OD450 |
| B7 | 1.95 OD450 |
| B8 | 0.54 OD450 |
| B9 | 1.58 OD450 |
| B10 | 1.67 OD450 |
| B11 | 1.41 OD450 |
| B12 | 0.78 OD450 |
| B13 | 1.1 OD450 |
| B14 | 0.79 OD450 |
| B15 | 1.37 OD450 |
| B16 | 0.3 OD450 |
| B17 | 0.71 OD450 |
| B18 | 1.72 OD450 |
| B19 | 0.81 OD450 |
| B20 | 1.07 OD450 |
| B21 | 1.68 OD450 |
| B22 | 1.93 OD450 |
| B23 | 1.11 OD450 |
| B24 | 1.47 OD450 |
| B25 | 1.01 OD450 |
| B26 | 0.85 OD450 |
| B27 | 0.9 OD450 |
| B28 | 0.64 OD450 |
| B29 | 1.01 OD450 |
| B30 | 1.2 OD450 |

Target: T1, Peptide 4: …
Assay: scFv ELISA
Summary of the method: (§1)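 Bound scFv was read as OD450 after HRP–anti-V5 detection, TMB development and HCl stop. PPE with BSA was incubated 1 h at RT on BSA-blocked wells coated overnight at 4° C. with peptide, or on streptavidin wells loaded 1 h with biotinylated PC-peptides at 1 μg/mL.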

| Binder | OD450 |
| --- | --- |
| B1 | 0.04 OD450 |
| B2 | 0.05 OD450 |
| B3 | 0.06 OD450 |
| B4 | 0.04 OD450 |
| B5 | 0.05 OD450 |
| B6 | 0.04 OD450 |
| B7 | 0.05 OD450 |
| B8 | 0.04 OD450 |
| B9 | 0.05 OD450 |
| B10 | 0.06 OD450 |
| B11 | 0.05 OD450 |
| B12 | 0.04 OD450 |
| B13 | 0.05 OD450 |
| B14 | 0.04 OD450 |
| B15 | 0.05 OD450 |
| B16 | 0.04 OD450 |
| B17 | 0.05 OD450 |
| B18 | 0.04 OD450 |
| B19 | 0.06 OD450 |
| B20 | 0.05 OD450 |
| B21 | 0.05 OD450 |
| B22 | 0.05 OD450 |
| B23 | 0.04 OD450 |
| B24 | 0.05 OD450 |
| B25 | 0.04 OD450 |
| B26 | 0.05 OD450 |
| B27 | 0.05 OD450 |
| B28 | 0.04 OD450 |
| B29 | 0.04 OD450 |
| B30 | 0.06 OD450 |

Target: T2, Peptide 8: …
Assay: scFv ELISA
Summary of the method: as §1

| Binder | OD450 |
| --- | --- |
| B1 | 0.04 OD450 |
| B2 | 0.05 OD450 |
| B3 | 0.06 OD450 |
| B4 | 0.04 OD450 |
| B5 | 0.05 OD450 |
| B6 | 0.04 OD450 |
| B7 | 0.04 OD450 |
| B8 | 0.04 OD450 |
| B9 | 0.04 OD450 |
| B10 | 0.05 OD450 |
| B11 | 0.06 OD450 |
| B12 | 0.04 OD450 |
| B13 | 0.04 OD450 |
| B14 | 0.04 OD450 |
| B15 | 0.04 OD450 |
| B16 | 0.04 OD450 |
| B17 | 0.05 OD450 |
| B18 | 0.04 OD450 |
| B19 | 0.05 OD450 |
| B20 | 0.05 OD450 |
| B21 | 0.05 OD450 |
| B22 | 0.05 OD450 |
| B23 | 0.04 OD450 |
| B24 | 0.05 OD450 |
| B25 | 0.05 OD450 |
| B26 | 0.05 OD450 |
| B27 | 0.05 OD450 |
| B28 | 0.04 OD450 |
| B29 | 0.04 OD450 |
| B30 | 0.04 OD450 |
